# T1: IL10R1-Fc (human, UniProt Q13651 22-235)
# T1 chain: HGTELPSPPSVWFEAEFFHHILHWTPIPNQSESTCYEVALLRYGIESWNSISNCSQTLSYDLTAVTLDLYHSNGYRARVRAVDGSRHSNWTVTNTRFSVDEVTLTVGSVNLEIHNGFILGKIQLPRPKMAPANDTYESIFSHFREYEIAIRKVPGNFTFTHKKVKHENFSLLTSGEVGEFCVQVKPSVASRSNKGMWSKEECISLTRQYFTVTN
# Biological target: T1, IL10R1-Fc
# Test: BLI
row,Kd [nM],Binder
1,5.05,XENP14246 (WT) (protein) chain 1: EPKSSDKTHTCPPCPAPPVAGPSVFLFPPKPKDTLMISRTPEVTCVVVDVKHEDPEVKFNWYVDGVEVHNAKTKPREEEYNSTYRVVSVLTVLHQDWLNGKEYKCKVSNKALPAPIEKTISKAKGQPREPQVYTLPPSREEMTKNQVSLTCDVSGFYPSDIAVEWESDGQPENNYKTTPPVLDSDGSFFLYSKLTVDKSRWEQGDVFSCSVMHEALHNHYTQKSLSLSPGK chain 2: SPGQGTQSENSCTHFPGNLPNMLRDLRDAFSRVKTFFQMKDQLDNLLLKESLLEDFKGYLGCQALSEMIQFYLEEVMPQAENQDPDIKAHVNSLGENLKTLRLRLRRCHRFLPCENGGGSGGKSKAVEQVKNAFNKLQEKGIYKAMSEFDIFINYIEAYMTMKIRNEPKSSDKTHTCPPCPAPPVAGPSVFLFPPKPKDTLMISRTPEVTCVVVDVKHEDPEVKFNWYVDGVEVHNAKTKPREEQYNSTYRVVSVLTVLHQDWLNGKEYKCKVSNKALPAPIEKTISKAKGQPREPQVYTLPPSREQMTKNQVKLTCLVKGFYPSDIAVEWESNGQPENNYKTTPPVLDSDGSFFLYSKLTVDKSRWQQGNVFSCSVMHEALHNHYTQKSLSLSPGK
2,1.23,XENP25760 (D44N) (protein) chain 1: EPKSSDKTHTCPPCPAPPVAGPSVFLFPPKPKDTLMISRTPEVTCVVVDVKHEDPEVKFNWYVDGVEVHNAKTKPREEEYNSTYRVVSVLTVLHQDWLNGKEYKCKVSNKALPAPIEKTISKAKGQPREPQVYTLPPSREEMTKNQVSLTCDVSGFYPSDIAVEWESDGQPENNYKTTPPVLDSDGSFFLYSKLTVDKSRWEQGDVFSCSVMHEALHNHYTQKSLSLSPGK chain 2: SPGQGTQSENSCTHFPGNLPNMLRDLRDAFSRVKTFFQMKDQLNNLLLKESLLEDFKGYLGCQALSEMIQFYLEEVMPQAENQDPDIKAHVNSLGENLKTLRLRLRRCHRFLPCENGGGSGGKSKAVEQVKNAFNKLQEKGIYKAMSEFDIFINYIEAYMTMKIRNEPKSSDKTHTCPPCPAPPVAGPSVFLFPPKPKDTLMISRTPEVTCVVVDVKHEDPEVKFNWYVDGVEVHNAKTKPREEQYNSTYRVVSVLTVLHQDWLNGKEYKCKVSNKALPAPIEKTISKAKGQPREPQVYTLPPSREQMTKNQVKLTCLVKGFYPSDIAVEWESNGQPENNYKTTPPVLDSDGSFFLYSKLTVDKSRWQQGNVFSCSVMHEALHNHYTQKSLSLSPGK
3,14.4,XENP25763 (I87A) (protein) chain 1: EPKSSDKTHTCPPCPAPPVAGPSVFLFPPKPKDTLMISRTPEVTCVVVDVKHEDPEVKFNWYVDGVEVHNAKTKPREEEYNSTYRVVSVLTVLHQDWLNGKEYKCKVSNKALPAPIEKTISKAKGQPREPQVYTLPPSREEMTKNQVSLTCDVSGFYPSDIAVEWESDGQPENNYKTTPPVLDSDGSFFLYSKLTVDKSRWEQGDVFSCSVMHEALHNHYTQKSLSLSPGK chain 2: SPGQGTQSENSCTHFPGNLPNMLRDLRDAFSRVKTFFQMKDQLDNLLLKESLLEDFKGYLGCQALSEMIQFYLEEVMPQAENQDPDAKAHVNSLGENLKTLRLRLRRCHRFLPCENGGGSGGKSKAVEQVKNAFNKLQEKGIYKAMSEFDIFINYIEAYMTMKIRNEPKSSDKTHTCPPCPAPPVAGPSVFLFPPKPKDTLMISRTPEVTCVVVDVKHEDPEVKFNWYVDGVEVHNAKTKPREEQYNSTYRVVSVLTVLHQDWLNGKEYKCKVSNKALPAPIEKTISKAKGQPREPQVYTLPPSREQMTKNQVKLTCLVKGFYPSDIAVEWESNGQPENNYKTTPPVLDSDGSFFLYSKLTVDKSRWQQGNVFSCSVMHEALHNHYTQKSLSLSPGK
4,3.86,XENP25754 (D28N) (protein) chain 1: EPKSSDKTHTCPPCPAPPVAGPSVFLFPPKPKDTLMISRTPEVTCVVVDVKHEDPEVKFNWYVDGVEVHNAKTKPREEEYNSTYRVVSVLTVLHQDWLNGKEYKCKVSNKALPAPIEKTISKAKGQPREPQVYTLPPSREEMTKNQVSLTCDVSGFYPSDIAVEWESDGQPENNYKTTPPVLDSDGSFFLYSKLTVDKSRWEQGDVFSCSVMHEALHNHYTQKSLSLSPGK chain 2: SPGQGTQSENSCTHFPGNLPNMLRDLRNAFSRVKTFFQMKDQLDNLLLKESLLEDFKGYLGCQALSEMIQFYLEEVMPQAENQDPDIKAHVNSLGENLKTLRLRLRRCHRFLPCENGGGSGGKSKAVEQVKNAFNKLQEKGIYKAMSEFDIFINYIEAYMTMKIRNEPKSSDKTHTCPPCPAPPVAGPSVFLFPPKPKDTLMISRTPEVTCVVVDVKHEDPEVKFNWYVDGVEVHNAKTKPREEQYNSTYRVVSVLTVLHQDWLNGKEYKCKVSNKALPAPIEKTISKAKGQPREPQVYTLPPSREQMTKNQVKLTCLVKGFYPSDIAVEWESNGQPENNYKTTPPVLDSDGSFFLYSKLTVDKSRWQQGNVFSCSVMHEALHNHYTQKSLSLSPGK
5,7.3,XENP25758 (Q42E) (protein) chain 1: EPKSSDKTHTCPPCPAPPVAGPSVFLFPPKPKDTLMISRTPEVTCVVVDVKHEDPEVKFNWYVDGVEVHNAKTKPREEEYNSTYRVVSVLTVLHQDWLNGKEYKCKVSNKALPAPIEKTISKAKGQPREPQVYTLPPSREEMTKNQVSLTCDVSGFYPSDIAVEWESDGQPENNYKTTPPVLDSDGSFFLYSKLTVDKSRWEQGDVFSCSVMHEALHNHYTQKSLSLSPGK chain 2: SPGQGTQSENSCTHFPGNLPNMLRDLRDAFSRVKTFFQMKDELDNLLLKESLLEDFKGYLGCQALSEMIQFYLEEVMPQAENQDPDIKAHVNSLGENLKTLRLRLRRCHRFLPCENGGGSGGKSKAVEQVKNAFNKLQEKGIYKAMSEFDIFINYIEAYMTMKIRNEPKSSDKTHTCPPCPAPPVAGPSVFLFPPKPKDTLMISRTPEVTCVVVDVKHEDPEVKFNWYVDGVEVHNAKTKPREEQYNSTYRVVSVLTVLHQDWLNGKEYKCKVSNKALPAPIEKTISKAKGQPREPQVYTLPPSREQMTKNQVKLTCLVKGFYPSDIAVEWESNGQPENNYKTTPPVLDSDGSFFLYSKLTVDKSRWQQGNVFSCSVMHEALHNHYTQKSLSLSPGK
6,10.6,XENP25761 (N45D) (protein) chain 1: EPKSSDKTHTCPPCPAPPVAGPSVFLFPPKPKDTLMISRTPEVTCVVVDVKHEDPEVKFNWYVDGVEVHNAKTKPREEEYNSTYRVVSVLTVLHQDWLNGKEYKCKVSNKALPAPIEKTISKAKGQPREPQVYTLPPSREEMTKNQVSLTCDVSGFYPSDIAVEWESDGQPENNYKTTPPVLDSDGSFFLYSKLTVDKSRWEQGDVFSCSVMHEALHNHYTQKSLSLSPGK chain 2: SPGQGTQSENSCTHFPGNLPNMLRDLRDAFSRVKTFFQMKDQLDDLLLKESLLEDFKGYLGCQALSEMIQFYLEEVMPQAENQDPDIKAHVNSLGENLKTLRLRLRRCHRFLPCENGGGSGGKSKAVEQVKNAFNKLQEKGIYKAMSEFDIFINYIEAYMTMKIRNEPKSSDKTHTCPPCPAPPVAGPSVFLFPPKPKDTLMISRTPEVTCVVVDVKHEDPEVKFNWYVDGVEVHNAKTKPREEQYNSTYRVVSVLTVLHQDWLNGKEYKCKVSNKALPAPIEKTISKAKGQPREPQVYTLPPSREQMTKNQVKLTCLVKGFYPSDIAVEWESNGQPENNYKTTPPVLDSDGSFFLYSKLTVDKSRWQQGNVFSCSVMHEALHNHYTQKSLSLSPGK
7,4.76,XENP25756 (M39T) (protein) chain 1: EPKSSDKTHTCPPCPAPPVAGPSVFLFPPKPKDTLMISRTPEVTCVVVDVKHEDPEVKFNWYVDGVEVHNAKTKPREEEYNSTYRVVSVLTVLHQDWLNGKEYKCKVSNKALPAPIEKTISKAKGQPREPQVYTLPPSREEMTKNQVSLTCDVSGFYPSDIAVEWESDGQPENNYKTTPPVLDSDGSFFLYSKLTVDKSRWEQGDVFSCSVMHEALHNHYTQKSLSLSPGK chain 2: SPGQGTQSENSCTHFPGNLPNMLRDLRDAFSRVKTFFQTKDQLDNLLLKESLLEDFKGYLGCQALSEMIQFYLEEVMPQAENQDPDIKAHVNSLGENLKTLRLRLRRCHRFLPCENGGGSGGKSKAVEQVKNAFNKLQEKGIYKAMSEFDIFINYIEAYMTMKIRNEPKSSDKTHTCPPCPAPPVAGPSVFLFPPKPKDTLMISRTPEVTCVVVDVKHEDPEVKFNWYVDGVEVHNAKTKPREEQYNSTYRVVSVLTVLHQDWLNGKEYKCKVSNKALPAPIEKTISKAKGQPREPQVYTLPPSREQMTKNQVKLTCLVKGFYPSDIAVEWESNGQPENNYKTTPPVLDSDGSFFLYSKLTVDKSRWQQGNVFSCSVMHEALHNHYTQKSLSLSPGK
8,16.4,XENP25759 (L43V) (protein) chain 1: EPKSSDKTHTCPPCPAPPVAGPSVFLFPPKPKDTLMISRTPEVTCVVVDVKHEDPEVKFNWYVDGVEVHNAKTKPREEEYNSTYRVVSVLTVLHQDWLNGKEYKCKVSNKALPAPIEKTISKAKGQPREPQVYTLPPSREEMTKNQVSLTCDVSGFYPSDIAVEWESDGQPENNYKTTPPVLDSDGSFFLYSKLTVDKSRWEQGDVFSCSVMHEALHNHYTQKSLSLSPGK chain 2: SPGQGTQSENSCTHFPGNLPNMLRDLRDAFSRVKTFFQMKDQVDNLLLKESLLEDFKGYLGCQALSEMIQFYLEEVMPQAENQDPDIKAHVNSLGENLKTLRLRLRRCHRFLPCENGGGSGGKSKAVEQVKNAFNKLQEKGIYKAMSEFDIFINYIEAYMTMKIRNEPKSSDKTHTCPPCPAPPVAGPSVFLFPPKPKDTLMISRTPEVTCVVVDVKHEDPEVKFNWYVDGVEVHNAKTKPREEQYNSTYRVVSVLTVLHQDWLNGKEYKCKVSNKALPAPIEKTISKAKGQPREPQVYTLPPSREQMTKNQVKLTCLVKGFYPSDIAVEWESNGQPENNYKTTPPVLDSDGSFFLYSKLTVDKSRWQQGNVFSCSVMHEALHNHYTQKSLSLSPGK
9,8.14,XENP25753 (N21D) (protein) chain 1: EPKSSDKTHTCPPCPAPPVAGPSVFLFPPKPKDTLMISRTPEVTCVVVDVKHEDPEVKFNWYVDGVEVHNAKTKPREEEYNSTYRVVSVLTVLHQDWLNGKEYKCKVSNKALPAPIEKTISKAKGQPREPQVYTLPPSREEMTKNQVSLTCDVSGFYPSDIAVEWESDGQPENNYKTTPPVLDSDGSFFLYSKLTVDKSRWEQGDVFSCSVMHEALHNHYTQKSLSLSPGK chain 2: SPGQGTQSENSCTHFPGNLPDMLRDLRDAFSRVKTFFQMKDQLDNLLLKESLLEDFKGYLGCQALSEMIQFYLEEVMPQAENQDPDIKAHVNSLGENLKTLRLRLRRCHRFLPCENGGGSGGKSKAVEQVKNAFNKLQEKGIYKAMSEFDIFINYIEAYMTMKIRNEPKSSDKTHTCPPCPAPPVAGPSVFLFPPKPKDTLMISRTPEVTCVVVDVKHEDPEVKFNWYVDGVEVHNAKTKPREEQYNSTYRVVSVLTVLHQDWLNGKEYKCKVSNKALPAPIEKTISKAKGQPREPQVYTLPPSREQMTKNQVKLTCLVKGFYPSDIAVEWESNGQPENNYKTTPPVLDSDGSFFLYSKLTVDKSRWQQGNVFSCSVMHEALHNHYTQKSLSLSPGK
